From patent publication US20190135934A1 (published 2019)
Positions count from the first letter of the chain named. One block for each binder: values may come before it.

Molecular target: T1, CD20 protein on CD20 protein-positive lymphoma cell Raji (ATCC CCL-86) (UniProt P11836 1-297, limits assumed)
T1 construct: whole, on cells; The target is native CD20 on Raji cells; also called CD20 antigen
T1 sequence (looked up): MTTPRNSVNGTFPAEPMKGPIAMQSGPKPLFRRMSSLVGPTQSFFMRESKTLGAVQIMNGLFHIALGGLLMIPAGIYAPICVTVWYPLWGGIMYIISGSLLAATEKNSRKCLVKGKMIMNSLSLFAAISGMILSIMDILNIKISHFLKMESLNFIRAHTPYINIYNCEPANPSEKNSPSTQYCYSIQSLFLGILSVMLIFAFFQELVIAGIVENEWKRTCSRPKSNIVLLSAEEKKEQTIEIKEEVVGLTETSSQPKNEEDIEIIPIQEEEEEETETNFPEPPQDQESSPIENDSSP
Assay: flow cytometry, fluorescently labeled antibody on Raji cells
Protocol: Briefly, after diluted in equal concentration proportions, the purified fluorescently labeled antibody was incubated with the CD20 protein-positive lymphoma cell Raji (ATCC CCL-86) for 45 minutes on ice, and then washed twice and subjected to flow cytometry. The binding activity of the antibody was further evaluated based on the change in fluorescence intensity of the antibody after binding to the cells at different antibody concentrations.

B1: novel CD20 antibody H102YH (antibody, human IgG1, V domains shown)
VH: QVQLQQPGAELVKPGASVKMSCKASGYTFTSYNMHWVKQTPGRGLEWIGAIYPGNGDTSYNQKFKGKATLTADKSSSTAYMQLSSLTSEDSAVYYCARSTYHGGDWYFNVWGAGTTVTVSA
VL: QIVLSQSPAILSASPGEKVTMTCRASSSVSYIHWFQQKPGSSPKPWIYATSNLASGVPVRFSGSGSGTSYSLTISRVEAEDAATYYCQQWTSNPPTFGGGTKLEIKV
- binding result: binds

B2: novel CD20 antibody H102YR (antibody, human IgG1, V domains shown)
VH: B1 VH with H102R
VL: B1 VL
- binding result: binds

B3: novel CD20 antibody H102YQ (antibody, human IgG1, V domains shown)
VH: B1 VH with H102Q
VL: B1 VL
- binding result: binds

Further lines, results first:

- binding result: binds
B4: novel CD20 antibody H102YN (antibody, human IgG1, V domains shown)
VH: B1 VH with H102N
VL: B1 VL

- binding result: binds
B5: novel CD20 antibody H102YM (antibody, human IgG1, V domains shown)
VH: B1 VH with H102M
VL: B1 VL

- binding result: binds
B6: novel CD20 antibody H102YV (antibody, human IgG1, V domains shown)
VH: B1 VH with H102V
VL: B1 VL

- binding result: binds
B7: novel CD20 antibody H102YS (antibody, human IgG1, V domains shown)
VH: B1 VH with H102S
VL: B1 VL

- binding result: binds
B8: novel CD20 antibody H102YL (antibody, human IgG1, V domains shown)
VH: B1 VH with H102L
VL: B1 VL
